This note sets out measurements from patent US20240132599A1.

In test [1] the target is Vδ1 TCR on human Vδ1-positive γδ T cells (human), A0A1B0.
The target is the same in test [2]. This is another data set of the same source.
Test [3] shares this target. The source holds these as a separate data set.
Test [4] has the same target. This is another data set of the same source.
For test [5] the target is unchanged. Particulars: scale: nM.

Positions count from the first letter of the chain named. Read-outs that look alike come from different tables or passages of the source.

Chain of Vδ1 TCR on human Vδ1-positive γδ T cells (human), A0A1B0 (A0A1B0 entry or part of it mutant limits assumed): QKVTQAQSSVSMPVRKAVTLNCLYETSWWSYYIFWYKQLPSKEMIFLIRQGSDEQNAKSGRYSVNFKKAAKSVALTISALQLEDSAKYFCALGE

B1: ADT1-4-2/ADT3-2 (bispecific antibody)
heavy: EVQLQQSGPGLVKPSQTLSLTCAISGDSVSSKSAAWNWIRQSPSRGLEWLGRTYYRSKWSTDYAASVKSRITINPDTSKNQLSLQLNSVTPEDTAVYYCARTWVGYVDRWGQGTLVTVSSASTKGPSVFPLAPSSKSTSGGTAALGCLVKDYFPEPVTVSWNSGALTSGVHTFPAVLQSSGLYSLSSVVTVPSSSLGTQTYICNVNHKPSNTKVDKKVEPKSCDKTHTCPPCPAPELAGAPSVFLFPPKPKDTLMISRTPEVTCVVVDVSHEDPEVKFNWYVDGVEVHNAKTKPREEQYNSTYRVVSVLTVLHQDWLNGKEYKCKVSNKALPAPIEKTISKAKGQPREPQVYTLPPSRDELEEGPVSLTCLVKGFYPSDIAVEWESTYGPENNYKTTPPVLDSDGSFFLYSKLTVSYWRWYKGNVFSCSVMHEALHNHYTQKSLSLSPG
light: DIQMTQSPPALSASVGDRVTITCRASQDINDWLAWYQHKPGKAPKLLIYDASSLESGVPLRFSGSGSGTEFTLTISSLQPDDFATYYCQQKYSAPQVTFGQGTRLEIKRTVAAPSVFIFPPSDEQLKSGTASVVCLLNNFYPREAKVQWKVDNALQSGNSQESVTEQDSKDSTYSLSSTLTLSKADYEKHKVYACEVTHQGLSSPVTKSFNRGEC
As to B1, in test [1], the Vδ1 TCR down-regulation (A375 co-culture): % change (at saturation) was 102%, the Vδ1 TCR down-regulation (A375 co-culture): EC50 is 0.00142 nM and the Vδ1 TCR down-regulation (A375 co-culture): EC95 came to 0.0379 nM. In test [2], this molecule registered a Vδ1 TCR down-regulation (A375 co-culture): % change (at EC100 saturation) of 96.8% and a Vδ1 TCR down-regulation (A375 co-culture): EC50 of 0.00095 nM.

B2: ADT1-4/ADT3-1 (bispecific antibody, human IgG1)
heavy: B1 heavy with E1Q, V104S, R109V, L361T, E362D, E363D
light: ASDIQMTQSPPALSASVGDRVTITCRASQDINDWLAWYQHKPGKAPKLLIYDASSLESGVPSRFSGSGSGTEFTLTISSLQPDDFATYYCQQSYSTPQVTFGQGTRLEIKRTAAAPSVFIFPPSDEQLKSGTASVVCLLNNFYPREAKVQWKVDNALQSGNSQESVTEQDSKDSTYSLSSTLTLSKADYEKHKLYACEVTHQGLSSPVTKSFNRGEC
For the molecule B2, in test [3], the Vδ1 TCR down-regulation (A375 co-culture): % change (at saturation) was 34%, the Vδ1 TCR down-regulation (A375 co-culture): EC95 was determined as 5.9 nM, the Vδ1 TCR down-regulation (A431 co-culture): % change (at saturation) is 80.3% and the Vδ1 TCR down-regulation (A431 co-culture): EC95 was 0.0263 nM.

B3: ADT1-4-2/ADT3-1 (bispecific antibody)
heavy: B1 heavy with L361T, E362D, E363D
light: B1 light
Consider B3, for which, in test [3], the Vδ1 TCR down-regulation (A375 co-culture): % change (at saturation) worked out at 46%, the Vδ1 TCR down-regulation (A375 co-culture): EC95 worked out at 0.101 nM, the Vδ1 TCR down-regulation (A431 co-culture): % change (at saturation) came out at 81.1% and the Vδ1 TCR down-regulation (A431 co-culture): EC95 worked out at 0.0079 nM. The Vδ1 TCR down-regulation (A375 co-culture): EC50 (read off the curve) in test [4] worked out at 0.01 nM.

B4: ADT1-7 (parental) (antibody, IgG1, V domains shown)
VH: QVQLVESGGGLVKPGGSLRLSCAASGFTFSDYYMSWIRQAPGKGLEWVSYISSSGSTIYYADSVKGRFTISRDNAKNSLYLQMNSLRAEDTAVYYCARVDYADAFDIWGQGTLVTVSS
VL: ASDIQMTQSPSSLSASVGDRVTIACRAGQSIGTYLNWYQQKPGKAPKLLIYVASSLQSGVPSRFSGSGSGTEFTLTISSLQPEDFATYYCQQSYSTLLTFGRGTKVEIK
As for B4, the IC50 of Vδ1 TCR downregulation (% MFI of anti-Vδ1 staining after 2 h, two γδ cell donors) in test [5] turned out to be 22.4.
